# Experimental data: US20200017549A1, “NOVEL a4B7 PEPTIDE ANTAGONISTS” (Protagonist Therapeutics, Inc., priority 2013, published 2020)
# Bridge positions count the residues as written; N and C are the ends. Square brackets hold non-standard residues; d marks the D form. Ends that are not written are not given here. NMeR = CN[C@@H](CCCNC(=N)N)C(=O)O
# Target: T1, recombinant human integrin α4β7 (Homo sapiens, UniProt P13612+P26010)
# T1 construct: purchased R&D Systems 5397-A30
# T1 sequence (P13612 34-970 limits assumed): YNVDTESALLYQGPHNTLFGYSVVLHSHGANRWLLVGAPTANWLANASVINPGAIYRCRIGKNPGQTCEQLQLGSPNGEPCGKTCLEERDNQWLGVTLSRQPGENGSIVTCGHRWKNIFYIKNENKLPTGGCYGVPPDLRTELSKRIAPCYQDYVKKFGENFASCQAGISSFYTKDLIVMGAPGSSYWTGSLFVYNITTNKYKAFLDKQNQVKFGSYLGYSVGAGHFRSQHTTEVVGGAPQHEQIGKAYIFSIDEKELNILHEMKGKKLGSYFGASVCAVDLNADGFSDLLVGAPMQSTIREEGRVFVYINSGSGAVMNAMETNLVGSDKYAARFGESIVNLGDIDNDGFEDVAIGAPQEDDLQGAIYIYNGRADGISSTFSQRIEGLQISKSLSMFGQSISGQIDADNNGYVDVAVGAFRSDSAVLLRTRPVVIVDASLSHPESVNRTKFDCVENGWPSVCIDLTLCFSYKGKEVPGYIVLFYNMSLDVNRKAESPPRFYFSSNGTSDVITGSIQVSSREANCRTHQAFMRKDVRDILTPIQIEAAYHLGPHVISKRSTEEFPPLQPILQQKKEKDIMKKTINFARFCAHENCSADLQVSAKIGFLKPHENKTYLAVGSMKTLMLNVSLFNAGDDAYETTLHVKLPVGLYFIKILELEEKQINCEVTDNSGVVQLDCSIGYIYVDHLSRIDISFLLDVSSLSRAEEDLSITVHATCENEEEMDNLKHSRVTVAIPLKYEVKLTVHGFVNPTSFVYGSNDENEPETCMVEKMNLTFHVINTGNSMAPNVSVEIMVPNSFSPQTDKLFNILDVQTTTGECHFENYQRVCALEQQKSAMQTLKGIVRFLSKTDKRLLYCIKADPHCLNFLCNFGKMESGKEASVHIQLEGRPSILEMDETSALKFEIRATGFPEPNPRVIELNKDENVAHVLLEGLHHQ
# T1 sequence (P26010 20-723 limits assumed): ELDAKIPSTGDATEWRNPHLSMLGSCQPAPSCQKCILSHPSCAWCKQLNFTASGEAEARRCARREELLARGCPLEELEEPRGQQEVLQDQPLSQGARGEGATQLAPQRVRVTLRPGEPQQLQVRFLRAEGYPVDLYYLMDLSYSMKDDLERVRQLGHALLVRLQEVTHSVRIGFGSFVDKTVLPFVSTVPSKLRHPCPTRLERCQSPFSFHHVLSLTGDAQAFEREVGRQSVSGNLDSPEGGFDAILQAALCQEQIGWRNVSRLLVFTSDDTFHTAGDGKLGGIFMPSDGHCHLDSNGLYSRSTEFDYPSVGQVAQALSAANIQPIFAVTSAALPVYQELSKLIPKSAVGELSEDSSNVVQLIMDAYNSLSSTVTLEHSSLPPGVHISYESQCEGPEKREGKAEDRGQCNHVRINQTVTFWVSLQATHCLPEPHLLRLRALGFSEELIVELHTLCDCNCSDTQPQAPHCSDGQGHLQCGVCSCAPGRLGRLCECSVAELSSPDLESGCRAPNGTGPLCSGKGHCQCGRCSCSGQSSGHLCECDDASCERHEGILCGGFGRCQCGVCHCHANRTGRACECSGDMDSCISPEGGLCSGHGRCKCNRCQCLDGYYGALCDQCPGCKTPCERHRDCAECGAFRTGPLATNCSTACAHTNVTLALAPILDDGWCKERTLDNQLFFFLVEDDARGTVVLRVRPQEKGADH
# Test: α4β7-MAdCAM Competition ELISA
# Format: binding
# Conditions: N-Me-Arg substituted, as compared to SEQ ID NO:39
# Description: α4β7-MAdCAM Competition ELISA
# A nickel coated plate (Pierce # 15442) was coated with recombinant human integrin α4β7 (R&D Systems #5397-A30) at 800 ng/well and incubated at room temperature with shaking for 1 hr. The solution was then remove by shaking and blocked with assay buffer (50 mM Tris-HCl pH7.6, 150 mM NaCl, 1 mM MnCl2, 0.05% Tween-20 and 0.5% BSA) at 250 ul/well. The plate was then incubated at room temperature for 1 hr. Each well was washed 3 times with wash buffer (50 mM Tris-HCl pH7.6, 100mM NaCl, 1 mM MnCl2, 0.05% Tween-20). To each well was added 25 ul of a serial dilution (3-fold dilutions in assay buffer) of peptides starting at 20 μM. 25 ul of recombinant human MAdCAM-1 (R&D Systems #6056-MC) was then added to each well at a fixed concentration 20 nM. The final starting peptide concentration was 10 μM, and the final MAdCAM-1 concentration was 10 nM. The plates were then incubated at room temperature for 1 hr to reach binding equilibrium. The wells were then washed three times with wash buffer. 50 ul of mouse anti-human IgG1-HRP (Invitrogen # A10648) diluted in 1:2000 in assay buffer was then added to each well. The wells were incubated at room temperature for 45 min with shaking. The wells were then washed 3 times with wash buffer. […] The reaction was stopped with 2N H2SO4 and absorbance was read at 450 nm.
substance,measurement,value
SEQ ID NO: 48: integrin antagonist peptide substituted with N-Me-Arg (C[NMeR]SDTLCK; disulfide 1-7),potency for α4β7 in ELISA,increased potency
